# Measured values reported in publication PMC2172333 (The Journal of Cell Biology, 2004).
# T1: MBP-Bfa1 (yeast, UniProt P47113 1-574)
# T1 sequence: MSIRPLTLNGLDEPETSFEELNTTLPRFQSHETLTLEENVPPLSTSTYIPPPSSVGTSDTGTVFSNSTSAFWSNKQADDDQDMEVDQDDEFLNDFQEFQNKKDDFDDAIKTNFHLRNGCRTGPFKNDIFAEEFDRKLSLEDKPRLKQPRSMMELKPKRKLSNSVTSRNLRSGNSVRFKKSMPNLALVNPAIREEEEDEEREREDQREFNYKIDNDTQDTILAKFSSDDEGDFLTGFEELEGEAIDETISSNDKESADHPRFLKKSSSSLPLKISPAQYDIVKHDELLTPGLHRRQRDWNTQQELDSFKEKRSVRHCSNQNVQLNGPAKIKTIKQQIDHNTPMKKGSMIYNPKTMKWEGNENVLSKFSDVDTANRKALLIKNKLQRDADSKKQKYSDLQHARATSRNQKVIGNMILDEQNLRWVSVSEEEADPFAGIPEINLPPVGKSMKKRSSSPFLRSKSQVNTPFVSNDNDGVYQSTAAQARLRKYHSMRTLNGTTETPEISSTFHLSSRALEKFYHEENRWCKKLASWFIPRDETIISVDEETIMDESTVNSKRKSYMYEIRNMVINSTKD
# T2: MBP-Bub2 (yeast, UniProt P26448 1-306)
# T2 sequence: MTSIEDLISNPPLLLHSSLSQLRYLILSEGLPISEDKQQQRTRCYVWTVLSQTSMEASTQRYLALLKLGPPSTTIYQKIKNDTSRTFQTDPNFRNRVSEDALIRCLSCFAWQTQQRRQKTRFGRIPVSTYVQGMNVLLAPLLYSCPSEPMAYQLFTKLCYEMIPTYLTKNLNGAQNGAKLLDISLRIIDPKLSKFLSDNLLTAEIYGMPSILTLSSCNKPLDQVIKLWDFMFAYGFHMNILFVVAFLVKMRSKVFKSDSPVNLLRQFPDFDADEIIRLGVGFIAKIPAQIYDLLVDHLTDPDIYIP
# T3: NH2-terminal domain of Net1 (Net1 1-600) (yeast, UniProt P47035 1-600)
# T3 sequence: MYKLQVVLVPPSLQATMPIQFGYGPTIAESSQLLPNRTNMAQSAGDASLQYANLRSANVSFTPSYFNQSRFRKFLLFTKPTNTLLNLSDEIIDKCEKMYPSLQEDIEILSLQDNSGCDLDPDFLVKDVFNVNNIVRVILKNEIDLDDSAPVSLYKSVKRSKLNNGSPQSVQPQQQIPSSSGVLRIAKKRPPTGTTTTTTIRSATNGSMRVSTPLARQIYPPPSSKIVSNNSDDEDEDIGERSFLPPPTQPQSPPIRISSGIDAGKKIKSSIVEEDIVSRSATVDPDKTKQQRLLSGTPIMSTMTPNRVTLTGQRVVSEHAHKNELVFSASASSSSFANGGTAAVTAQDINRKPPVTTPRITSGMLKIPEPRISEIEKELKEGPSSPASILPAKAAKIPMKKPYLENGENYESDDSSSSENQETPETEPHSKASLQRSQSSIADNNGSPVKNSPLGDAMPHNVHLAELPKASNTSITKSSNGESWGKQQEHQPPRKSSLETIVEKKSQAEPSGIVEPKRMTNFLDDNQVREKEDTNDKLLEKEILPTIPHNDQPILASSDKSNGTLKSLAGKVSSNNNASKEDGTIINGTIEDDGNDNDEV
# B1: His6-Tem1 (natural protein)
# chain: MATPSTGANNSIPAVRNQVEVQVGLVGDAQVGKTSLMVKYVQNIYDKEYTQTLGVNFLKRKVSIRSTDIIFSIMDLGGQREFINMLPIATVGSSVIIFLFDLTRPETLSSIKEWYRQAYGLNDSAIPILVGTKYDLLIDLDPEYQEQISRTSMKYAQVMNAPLIFCSTAKSINIQKIFKIALAKIFNLTLTIPEINEIGDPLLIYKHLGGQQHRHHNKSQDRKSHNIRKPSSSPSSKAPSPGVNT
# B2: MBP-Cdc14 (natural protein)
# chain: MRRSVYLDNTIEFLRGRVYLGAYDYTPEDTDELVFFTVEDAIFYNSFHLDFGPMNIGHLYRFAVIFHEILNDPENANKAVVFYSSASTRQRANAACMLCCYMILVQAWTPHQVLQPLAQVDPPFMPFRDAGYSNADFEITIQDVVYGVWRAKEKGLIDLHSFNLESYEKYEHVEFGDFNVLTPDFIAFASPQEDHPKGYLATKSSHLNQPFKSVLNFFANNNVQLVVRLNSHLYNKKHFEDIGIQHLDLIFEDGTCPDLSIVKNFVGAAETIIKRGGKIAVHCKAGLGRTGCLIGAHLIYTYGFTANECIGFLRFIRPGMVVGPQQHWLYLHQNDFREWKYTTRISLKPSEAIGGLYPLISLEEYRLQKKKLKDDKRVAQNNIEGELRDLTMTPPSNGHGALSARNSSQPSTANNGSNSFKSSAVPQTSPGQPRKGQNGSNTIEDINNNRNPTSHANRKVVIESNNSDDESMQDTNGTSNHYPKVSRKKNDISSASSSRMEDNEPSATNINNAADDTILRQLLPKNRRVTSGRRTTSAAGGIRKISGSIKK
# B3: GST-Bub2 (natural protein)
# chain: T2 sequence
# Assays:
# Test in all cases: pull-down
# [1] = molecular target: T1, MBP-Bfa1
# [2] = molecular target: T2, MBP-Bub2
# [3] = molecular target: T3, NH2-terminal domain of Net1 (Net1 1-600)
binding result [1],binding result [2],binding result [3],Binder
binds,binds,,B1
,,binds,B2
binds,,,B3
